Laboratory results published in patent US20130289246A1.
Like-named read-outs stand apart in the source and are kept apart here.

Legend:
Experiment in all cases: ELISA, supernate
[1] = target: first-generation H3 LAH construct H3frThrST (Influenza A virus (H3))
[2] = target: first-generation H1 LAH construct H1frThrST (Influenza A virus (H1))
[3] = target: first-generation H1 LAH construct H1frThrST (Influenza A virus (H1)); remark: listed apart in the source

B1: mAb 5I17 (antibody, V domains shown)
VH: EVQLVESGGGVVQPGRSLRLSCAASGFSFSNYAMHWVRQAPGKGLEWVALISFDGSDKYYADSVKGRFTMSRDNSKNTLYLQMNSLRAEDTAVYYCARDEPYCGGDCFAFDVWGQGTMVTVS
VL: DIQLTQSPSSLSASAGDRVSMTCRASQIISSSLNWYQQKPGKAPKLLIYAASNLQSGVPSRFSGSGSGTDFTLTISSLQPEDFATYYCQQSYSTPPELTFGGGTKVDIKR
B1 was tested. Which OD [1] did it give?
The OD was 0.07 OD.

What about the OD [2] of the same binder?
Its OD is 0.07 OD.

What about the OD [3] of the same binder?
Its OD is 0.078 OD.
